Reference: patent publication US20080089862A1 (published 2008)

What was measured:
Assay in all cases: ELISA
[1] = biological target: peptide aptamer RB17 (MBP with C-terminal peptide […]) (Escherichia coli (strain K12), UniProt P0AEX9 29-392 = MBP)
[2] = biological target: peptide aptamer NNS8/N10 (MBP with C-terminal peptide […]) (Escherichia coli (strain K12), UniProt P0AEX9 29-392 = MBP)
[3] = biological target: peptide aptamer RB16 (MBP with C-terminal peptide […]) (Escherichia coli (strain K12), UniProt P0AEX9 29-392 = MBP)
[4] = biological target: peptide aptamer NNS8/N5 (MBP with C-terminal peptide […]) (Escherichia coli (strain K12), UniProt P0AEX9 29-392 = MBP)
[5] = biological target: peptide aptamer RB13 (MBP with C-terminal peptide […]) (Escherichia coli (strain K12), UniProt P0AEX9 29-392 = MBP)
[6] = biological target: peptide aptamer NNS8/N22 (MBP with C-terminal peptide […]) (Escherichia coli (strain K12), UniProt P0AEX9 29-392 = MBP)
[7] = biological target: peptide aptamer RB18 (MBP with C-terminal peptide […]) (Escherichia coli (strain K12), UniProt P0AEX9 29-392 = MBP)
[8] = biological target: peptide aptamer NNS8/N7 (MBP with C-terminal peptide […]) (Escherichia coli (strain K12), UniProt P0AEX9 29-392 = MBP)
[9] = biological target: peptide aptamer RB15 (MBP with C-terminal peptide […]) (Escherichia coli (strain K12), UniProt P0AEX9 29-392 = MBP)
[10] = biological target: peptide aptamer NNS8/N23 (MBP with C-terminal peptide […]) (Escherichia coli (strain K12), UniProt P0AEX9 29-392 = MBP)
[11] = biological target: peptide aptamer NNS8/N21 (MBP with C-terminal peptide […]) (Escherichia coli (strain K12), UniProt P0AEX9 29-392 = MBP)
[12] = biological target: peptide aptamer NNS8/N8 (MBP with C-terminal peptide […]) (Escherichia coli (strain K12), UniProt P0AEX9 29-392 = MBP)

Measured: binding result

B1: single-chain NS3 protease (scNS3) (enzyme)
chain: GSVVIVGRIILSGRAPITAYSQQTRGLLGCIITSLTGRDKNQVEGEVQVVSTATQSFLATCVNGVCWTVYHGAGSKTLAAPKGPITQMYTNVDQDLVGWPKPPGARSLTPCTCGSSDLYLVTRHADVIPVRRRGDSRGSLLSPRPVSYLKGSSGGPLLCPFGHAVGIFRAAVCTRGVAKAVDFVPVESMETTMRS
notes: domain: NS4A cofactor peptide;domain: NS3 protease domain
no binding: [1] | [2] | [3] | [4] | [5] | [6] | [7] | [8] | [9] | [10] | [11] | [12]
